The values that follow come from patent US20150344583A1.

In this test the target is human BCMA (huBCMA) on cells (human) (UniProt Q02223). Briefly: FACS, H929 cells, negative control.
human BCMA (huBCMA) on cells (human), sequence (Q02223 whole entry N81S): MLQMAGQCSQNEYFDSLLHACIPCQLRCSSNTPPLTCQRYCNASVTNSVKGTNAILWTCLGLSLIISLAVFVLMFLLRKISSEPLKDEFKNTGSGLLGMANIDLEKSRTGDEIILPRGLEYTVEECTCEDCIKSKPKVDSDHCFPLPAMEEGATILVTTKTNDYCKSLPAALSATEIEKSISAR

Turning to hu IgG1 (antibody), the MFI amounted to 8 MFI.
